Like-named read-outs stand apart in the source and are kept apart here.
T1: mouse IL23R (mouse, UniProt Q8K4B4 24-374, limits assumed)
T1 sequence (looked up): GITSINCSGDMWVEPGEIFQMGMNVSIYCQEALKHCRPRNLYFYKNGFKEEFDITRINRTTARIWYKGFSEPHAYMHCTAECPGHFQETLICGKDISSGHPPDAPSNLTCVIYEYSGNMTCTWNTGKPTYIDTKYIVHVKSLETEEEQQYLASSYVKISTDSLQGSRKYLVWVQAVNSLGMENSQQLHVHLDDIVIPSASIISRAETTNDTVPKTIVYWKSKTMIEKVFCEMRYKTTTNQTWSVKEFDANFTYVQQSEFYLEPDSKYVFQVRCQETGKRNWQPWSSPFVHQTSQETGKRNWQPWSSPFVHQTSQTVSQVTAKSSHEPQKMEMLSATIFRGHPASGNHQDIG

T2: linear 15mer peptides derived from cynomolgus CD3ε residues 5-20 (Set 4) (cynomolgus)
T2 construct: also called peptides spanning residues 5-20
T2 peptide: EEMGSITQTPYQVSIS

T3: linear 15mer peptides derived from human CD3ε residues 5-20 (Set 3) (human)
T3 construct: also called peptides spanning residues 5-20
T3 peptide: EEMGGITQTPYKVSIS

T4: linear 15mer peptide derived from cynomolgus CD3ε residues 2-16 (wild type of the substitution library, Set 2) (cynomolgus)
T4 construct: Probed as a saturation mutagenesis library on a peptide array
T4 peptide: DGNEEMGSITQTPYQ

T5: linear 15mer peptide derived from human CD3ε residues 2-16 (wild type of the substitution library, Set 1) (human)
T5 construct: Probed as a saturation mutagenesis library on a peptide array
T5 peptide: DGNEEMGGITQTPYK


Experiments:
[1] = biological target: T6, mouse CD3ε (mouse, UniProt P22646 22-108, limits assumed); experiment: SPR
T6 sequence (P22646 22-108 limits assumed): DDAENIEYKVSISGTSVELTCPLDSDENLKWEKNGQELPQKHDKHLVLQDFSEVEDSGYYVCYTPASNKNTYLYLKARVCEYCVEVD

[2] = biological target: T1, mouse IL23R; experiment: SPR
[3] = biological target: T7, human CD3ε expressed on the cell surface of T cells (Jurkat cells; human CD8+ T cells) (human, UniProt P07766 23-207); experiment: cell-based ELISA on Jurkat cells, CD3ε-deficient Jurkat subtracted
T7 construct: whole, on cells; also called native CD3ε embedded in the TCR complex on Jurkat cells
Protocol: (§1) Jurkat cells (clone E6-1), a human T cell line, were seeded at 300,000 cells/well in round bottom 96-well plates in 100 μl phosphate-buffered saline (PBS) containing 10% FBS. Five-fold serial dilutions of anti-CD3 rabbit monoclonal antibodies ranging from 90 nM to 0.0058 nM were added to the plates in 100 μl PBS containing 10% FBS. […] This secondary antibody was linked to the enzyme horseradish peroxidase (HRP). HRP activity was measured by addition of TMB substrate (3,3′,5,5′-tetramethylbenzidine, KPL, Cat. No. 53-00-00), which in a colorimetric reaction is processed by the HRP. The color intensity of the processed substrate is directly proportional to the amount of anti-CD3 antibody bound to Jurkat cells. To quantify color intensity, light absorbance (optical density) at the respective wave length was measured using a microtiter plate reader (Infinity reader M200 Pro, Tecan).
(§2) To correct for unspecific binding of the antibodies to unknown components presented on the cell surface of Jurkat cells, a CD3ε deficient derivative of the Jurkat T cell line (J.RT3-T3.5) was used. Binding of the monoclonal antibodies to this cell line was measured as described above for the Jurkat cells. For quantification of specific binding to Jurkat cells, the optical density for binding to the negative control was subtracted from the optical density for binding to Jurkat cells. Data were analyzed using a four-parameter logistic curve fit using the Softmax Data Analysis Software (Molecular Devices), and the molar concentration of anti-CD3 antibody required to reach 50% binding (EC₅₀, mid-OD of the standard curve) was derived from dose response curves.

[4] = biological target: T8, human heterodimeric single-chain CD3εγ extracellular domain (human, UniProt P07766 23-126; P09693 23-116); experiment: SPR, rabbit IgG captured, human single-chain CD3εγ ECD injected
T8 construct: extracellular domain; Produced in-house; also called scCD3γε; human CD3ge
Protocol: (§3) Binding affinities of monoclonal rabbit anti-CD3 antibodies were measured by surface plasmon resonance (SPR) using a MASS-1 SPR instrument (Sierra Sensors). […] Rabbit monoclonal antibodies were captured by the immobilized anti-rabbit IgG antibody. Two-fold serial dilutions of human heterodimeric single-chain CD3εγ extracellular domain (produced in-house) ranging from 90 to 2.81 nM were injected into the flow cells for 3 min and dissociation of the protein from the IgG captured on the sensor chip was allowed to proceed for 5 min. After each injection cycle, surfaces were regenerated with two injections of 10 mM glycine-HCl. The apparent dissociation (kd) and association (ka) rate constants and the apparent dissociation equilibrium constant (KD) were calculated with the MASS-1 analysis software (Analyzer, Sierra Sensors) using one-to-one Langmuir binding model.

[5] = biological target: T9, cynomolgus monkey heterodimeric single-chain CD3εγ extracellular domain (cynomolgus monkey, UniProt Q95LI5 22-117; Q95LI7 23-113); experiment: SPR; ratio of the KDs for cyno and human single-chain CD3εγ
T9 sequence (Q95LI7 other isoform, or with tags, fused parts or gaps): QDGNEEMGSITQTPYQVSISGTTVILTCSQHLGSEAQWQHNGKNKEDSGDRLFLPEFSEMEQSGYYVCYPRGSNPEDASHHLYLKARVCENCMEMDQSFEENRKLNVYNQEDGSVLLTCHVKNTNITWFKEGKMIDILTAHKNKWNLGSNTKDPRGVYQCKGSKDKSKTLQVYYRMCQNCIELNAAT

[6] = biological target: T7, human CD3ε expressed on the cell …; experiment: cell-based ELISA on Jurkat cells
Protocol: as §1, §2

[7] = biological target: T2, linear 15mer peptides derived from …; experiment: peptide array ELISA, Set 4
Protocol: (§4) The binding of the antibodies to each of the synthesized peptides was tested by ELISA. The peptide arrays were incubated with primary antibody solution (overnight at 4° C.). After washing, the peptide arrays were incubated with a 1/1000 dilution of an antibody peroxidase conjugate (SBA, cat.nr.2010-05) for one hour at 25° C. After washing, the peroxidase substrate 2,2′-azino-di-3-ethylbenzthiazoline sulfonate (ABTS) and 2 μl/ml of 3% H₂O₂ were added. After one hour, the color development was measured. The color development was quantified with a charge coupled device (CCD)—camera and an image processing system.

[8] = biological target: T3, linear 15mer peptides derived from …; experiment: peptide array ELISA, Set 3
Protocol: as §4

[9] = biological target: T10, cynomolgus monkey CD3ε expressed on the surface of HSC-F T cells (cynomolgus monkey, UniProt Q95LI5 22-198); experiment: cell-based ELISA on cyno HSC-F T cells
T10 construct: whole, on cells; also called cyno HSC-F T cells
T10 sequence (Q95LI5 22-198): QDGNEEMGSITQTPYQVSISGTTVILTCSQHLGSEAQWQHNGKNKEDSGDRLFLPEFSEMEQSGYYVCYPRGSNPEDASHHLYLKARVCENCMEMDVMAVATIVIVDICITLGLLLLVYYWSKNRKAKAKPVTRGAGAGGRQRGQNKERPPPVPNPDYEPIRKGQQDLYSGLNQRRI

[10] = biological target: T9, cynomolgus monkey heterodimeric …; experiment: SPR, rabbit IgG captured, cyno single-chain CD3εγ ECD injected
[11] = biological target: T7, human CD3ε expressed on the cell …; experiment: cell-based or functional assay
[12] = biological target: T4, linear 15mer peptide derived from …; experiment: 15mer peptide array ELISA
[13] = biological target: T5, linear 15mer peptide derived from human …; experiment: 15mer peptide array ELISA
[14] = biological target: T8, human heterodimeric single-chain CD3εγ …; experiment: SPR, rabbit IgG captured, human single-chain CD3εγ ECD injected; remark: listed apart in the source
Protocol: as §3

[15] = biological target: T9, cynomolgus monkey heterodimeric …; experiment: SPR, rabbit IgG captured, cyno single-chain CD3εγ ECD injected; remark: listed apart in the source
[16] = biological target: T6, mouse CD3ε; experiment: SPR; remark: listed apart in the source
[17] = biological target: T1, mouse IL23R; experiment: SPR; remark: listed apart in the source

Row | EC50 [3] [nM] | Kd [4] [nM] | koff [4] [s⁻¹] | kon [4] [M⁻¹ s⁻¹] | KD (human)/KD (cyno) [5] | EC50 [6] [nM] | binding result [7] | binding result [8] | EC50 [9] [nM] | Kd [10] [nM] | koff [10] [s⁻¹] | kon [10] [M⁻¹ s⁻¹] | Fold increase in CD69 expression [MFI normalized to neg. ctrl.], 1.25 µg/ml anti-CD3 IgG [11] [fold] | Fold increase in CD69 expression [MFI normalized to neg. ctrl.], 5 µg/ml anti-CD3 IgG [11] [fold] | Fold increase in CD69 expression [MFI normalized to neg. ctrl.], 20 µg/ml anti-CD3 IgG [11] [fold] | binding result [12] | binding result [13] | Kd [14] [nM] | Kd [15] [nM] | Binder | other results
1 |  |  |  |  |  |  |  |  |  |  |  |  |  |  |  |  |  |  |  | PRO386 (bispecific antibody, Heterodimer; 2C11 Fab with an anti-IL23R scFv 14-11-D07-sc01 on the C-terminus of each chain; also called Tribody; bispecific, trivalent Fab-scFv fusion surrogate molecule) light: DIQMTQSPSSLPASLGDRVTINCQASQDISNYLNWYQQKPGKAPKLLIYYTNKLADGVPSRFSGSGSGRDSSFTISSLESEDIGSYYCQQYYNYPWTFGPGTKLEIKRRTVAAPSVFIFPPSDEQLKSGTASVVCLLNNFYPREAKVQWKVDNALQSGNSQESVTEQDSKDSTYSLSSTLTLSKADYEKHKVYACEVTHQGLSSPVTKSFNRGECGGGGSGGGGSHMDIQMTQSPSSLSASVGDRVTITCQASENIYSFLAWYQQKPGKAPKLLIYSASKLAAGVPSRFSGSGSGTDFTLTISSLQPEDFATYYCQQTNRYSNPDIYNVFGQGTKLTVLGGGGGSGGGGSGGGGSGGGGSEVQLVESGGGLVQPGGSLRLSCAASGIDFNSNYYMCWVRQAPGKGLEWIGCIYVGSHVNTYYANWAKGRFTISRDNSKNTVYLQMNSLRAEDTAVYYCATSGSSVLYFKFWGQGTLVTVSS heavy: EVQLVESGGGLVQPGKSLKLSCEASGFTFSGYGMHWVRQAPGRGLESVAYITSSSINIKYADAVKGRFTVSRDNAKNLLFLQMNILKSEDTAMYYCARFDWDKNYWGQGTMVTVSSASTKGPSVFPLAPSSKSTSGGTAALGCLVKDYFPEPVTVSWNSGALTSGVHTFPAVLQSSGLYSLSSVVTVPSSSLGTQTYICNVNHKPSNTKVDKKVEPKSCGGGGSGGGGSHMDIQMTQSPSSLSASVGDRVTITCQASENIYSFLAWYQQKPGKAPKLLIYSASKLAAGVPSRFSGSGSGTDFTLTISSLQPEDFATYYCQQTNRYSNPDIYNVFGQGTKLTVLGGGGGSGGGGSGGGGSGGGGSEVQLVESGGGLVQPGGSLRLSCAASGIDFNSNYYMCWVRQAPGKGLEWIGCIYVGSHVNTYYANWAKGRFTISRDNSKNTVYLQMNSLRAEDTAVYYCATSGSSVLYFKFWGQGTLVTVSS | Kd [1]: 11.5 nM; koff [1]: 0.00196 s⁻¹; kon [1]: 171000 M⁻¹ s⁻¹; Kd [2]: 0.583 nM; koff [2]: 0.000533 s⁻¹; kon [2]: 915000 M⁻¹ s⁻¹
2 | 0.71 | 0.304 | 0.000264 | 869000 | 13 | 0.71 | no binding | no binding | 3.82 | 3.86 | 0.00258 | 668000 | 3.3 | 4.6 | 7.4 | binds | binds | 0.304 | 3.86 | clone-02 (antibody, V domains shown, Recombinant rabbit IgG; also called Clone 2) VH: QSLEESGGRLVTPGTPLTLTCTVSGFPLSAYAMIWVRQAPGKGLEWIGMIIRSGTVYYANWAKGRFTISKTSTTVDLKITSPTTEDTATYFCARRHYNADGYPIGIGDLWGPGTLVTVSS VL: AQVLTQTPSSVSAVVGGTVTISCQSSESVYSNNRLSWFQQKPGQPPKLLIYSASTLASGVPSRFKGSGSGTQFTLTITDLECDDAATYFCQGEFSCSSVDCFSFGGGTEVVVKG | 
3 |  |  |  |  |  |  |  |  |  |  |  |  |  |  |  |  |  |  |  | PRO387 (bispecific antibody, scDb VLA-L1-VHB-L2-VLB-L3-VHA, A = anti-IL23R, B = anti-mouse CD3ε 2C11; also called bispecific single-chain diabody surrogate (scDb); anti-IL23R 14-11-D07-sc01 × anti-mCD3 2C11) DIQMTQSPSSLSASVGDRVTITCQASENIYSFLAWYQQKPGKAPKLLIYSASKLAAGVPSRFSGSGSGTDFTLTISSLQPEDFATYYCQQTNRYSNPDIYNVFGQGTKLTVLGGGGGSEVQLVESGGGLVQPGKSLKLSCEASGFTFSGYGMHWVRQAPGRGLESVAYITSSSINIKYADAVKGRFTVSRDNAKNLLFLQMNILKSEDTAMYYCARFDWDKNYWGQGTMVTVSSGGGGSGGGGSGGGGSGGGGSDIQMTQSPSSLPASLGDRVTINCQASQDISNYLNWYQQKPGKAPKLLIYYTNKLADGVPSRFSGSGSGRDSSFTISSLESEDIGSYYCQQYYNYPWTFGPGTKLEIKRGGGGSEVQLVESGGGLVQPGGSLRLSCAASGIDFNSNYYMCWVRQAPGKGLEWIGCIYVGSHVNTYYANWAKGRFTISRDNSKNTVYLQMNSLRAEDTAVYYCATSGSSVLYFKFWGQGTLVTVSS | Kd [16]: 9.11 nM; koff [16]: 0.00213 s⁻¹; kon [16]: 233000 M⁻¹ s⁻¹; Kd [17]: 4.66 nM; koff [17]: 0.00326 s⁻¹; kon [17]: 701000 M⁻¹ s⁻¹
4 | 0.67 | 2.23 | 0.00138 | 618000 | 4 | 0.67 | no binding | no binding | 1.6 | 8.95 | 0.00397 | 444000 | 2.7 | 5.1 | 5.3 | binds | binds | 2.23 | 8.95 | clone-06 (antibody, V domains shown, Recombinant rabbit IgG; also called Clone 6) VH: QSVEESGGRLVTPGTPLTLTCTVSGFPLSSYAMIWVRQAPGKGLEWIGMILRAGNIYYASWVKGRVTISKTSTTVDLKITSPTTEDTATYFCARRHYNREGYPIGIGDLWGPGTLVTVSS VL: AQVLTQTPSSVSAAVGGTVTISCQSSESVYNNKRLSWFQQKPGQPPKQLIYTASSLASGVPSRFKGSGSGTQFTLTISDLECDDAATYYCQGEFTCSNADCFTFGGGTEVVVKG | 
